Biological target: the molecule itself
Assay: SEC; LCAT alone on triple Superdex 200 Increase, run beside rHDL alone and the cross-linked mixture

B1: Lecithin:cholesterol acyltransferase (recombinant, expressed in CHO cells) (enzyme, human, UniProt P04180 25-440, looked up)
chain: FWLLNVLFPPHTTPKAELSNHTRPVILVPGCLGNQLEAKLDKPDVVNWMCYRKTEDFFTIWLDLNMFLPLGVDCWIDNTRVVYNRSSGLVSNAPGVQIRVPGFGKTYSVEYLDSSKLAGYLHTLVQNLVNNGYVRDETVRAAPYDWRLEPGQQEEYYRKLAGLVEEMHAAYGKPVFLIGHSLGCLHLLYFLLRQPQAWKDRFIDGFISLGAPWGGSIKPMLVLASGDNQGIPIMSSIKLKEEQRITTTSPWMFPSRMAWPEDHVFISTPSFNYTGRDFQRFFADLHFEEGWYMWLQSRDLLAGLPAPGVEVYCLYGVGLPTPRTYIYDHGFPYTDPVGVLYEDGDDTVATRSTELCGLWQGRQPQPVHLLPLHGIQHLNMVFSNLTLEHINAILLGAYRQGPPASPTASPEPPPPE
notes: Lecithin:cholesterol acyltransferase, human; cross-links to 'LCAT residue 1' (the N-terminus) are reported; Used for all non-cryoEM experiments (cross-linking, SEC, negative-stain EM, activity assays); also called LCAT; human LCAT; source: CHO cells, recombinant, gifted by Alan Remaley
**Q.** Does B1 bind?
**A.** Result: binds

Source: paper PMC12049944, “Lecithin:cholesterol acyltransferase binds a discontinuous binding site on adjacent apolipoprotein A-I belts in HDL” (Journal of Lipid Research, 2025)
